Measurements taken from US20030166872A1 (APPLIED MOLECULAR EVOLUTION, published 2003).
Each block holds one binder with its values, some of them ahead of it.

What was measured:
[1] = biological target: T1, integrin αVβ3 (human), P06756; experiment: SPR (BIAcore)
T1 chain 1: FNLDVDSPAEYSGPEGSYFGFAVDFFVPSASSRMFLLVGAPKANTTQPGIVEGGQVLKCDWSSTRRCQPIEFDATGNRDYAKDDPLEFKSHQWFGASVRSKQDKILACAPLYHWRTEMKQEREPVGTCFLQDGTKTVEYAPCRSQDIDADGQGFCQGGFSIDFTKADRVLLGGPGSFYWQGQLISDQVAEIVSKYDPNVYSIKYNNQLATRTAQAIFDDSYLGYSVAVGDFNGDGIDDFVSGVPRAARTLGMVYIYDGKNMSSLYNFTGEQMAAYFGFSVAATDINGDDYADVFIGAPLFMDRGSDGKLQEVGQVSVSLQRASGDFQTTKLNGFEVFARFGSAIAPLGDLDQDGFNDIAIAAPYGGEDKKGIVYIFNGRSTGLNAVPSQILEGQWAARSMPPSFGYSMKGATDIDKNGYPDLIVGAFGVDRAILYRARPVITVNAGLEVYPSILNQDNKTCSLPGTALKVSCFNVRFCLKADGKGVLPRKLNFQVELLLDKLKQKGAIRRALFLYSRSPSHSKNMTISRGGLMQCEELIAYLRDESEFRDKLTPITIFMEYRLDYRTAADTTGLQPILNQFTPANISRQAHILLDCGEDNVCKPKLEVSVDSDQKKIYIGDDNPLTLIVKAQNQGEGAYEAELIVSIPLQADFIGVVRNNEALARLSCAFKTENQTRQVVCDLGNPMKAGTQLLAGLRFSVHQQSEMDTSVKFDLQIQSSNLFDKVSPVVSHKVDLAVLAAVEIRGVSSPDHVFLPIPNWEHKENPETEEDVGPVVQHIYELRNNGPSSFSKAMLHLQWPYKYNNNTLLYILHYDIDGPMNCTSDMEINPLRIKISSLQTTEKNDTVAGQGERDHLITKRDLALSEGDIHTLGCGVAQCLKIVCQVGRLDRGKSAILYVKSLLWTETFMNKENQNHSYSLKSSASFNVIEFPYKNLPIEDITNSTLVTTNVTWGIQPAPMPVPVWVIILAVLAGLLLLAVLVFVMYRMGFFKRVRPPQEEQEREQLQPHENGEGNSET
T1 chain 2: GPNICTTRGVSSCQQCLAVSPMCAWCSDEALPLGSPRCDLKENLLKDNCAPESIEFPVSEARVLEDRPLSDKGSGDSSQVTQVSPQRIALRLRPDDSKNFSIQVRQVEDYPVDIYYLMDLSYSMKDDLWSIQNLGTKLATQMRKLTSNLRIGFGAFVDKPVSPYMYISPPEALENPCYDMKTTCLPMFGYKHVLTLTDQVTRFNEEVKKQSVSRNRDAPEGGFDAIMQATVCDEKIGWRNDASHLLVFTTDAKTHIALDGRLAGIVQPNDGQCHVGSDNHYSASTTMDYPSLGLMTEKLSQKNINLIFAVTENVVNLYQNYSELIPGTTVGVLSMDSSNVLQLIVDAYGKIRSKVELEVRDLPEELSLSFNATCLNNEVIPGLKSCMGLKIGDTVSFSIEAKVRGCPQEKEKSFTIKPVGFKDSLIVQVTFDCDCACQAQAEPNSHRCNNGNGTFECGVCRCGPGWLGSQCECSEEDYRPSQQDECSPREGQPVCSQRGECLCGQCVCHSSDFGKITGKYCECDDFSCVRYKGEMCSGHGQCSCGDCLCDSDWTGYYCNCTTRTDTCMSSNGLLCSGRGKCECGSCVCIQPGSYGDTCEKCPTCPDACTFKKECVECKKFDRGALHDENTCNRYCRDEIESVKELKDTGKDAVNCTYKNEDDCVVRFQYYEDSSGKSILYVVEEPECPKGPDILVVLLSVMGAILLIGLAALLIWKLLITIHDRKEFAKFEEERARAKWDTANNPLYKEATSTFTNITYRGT

[2] = biological target: T1, integrin αVβ3 (human), P06756; experiment: SPR (BIAcore), ratio of Kd
[3] = biological target: T1, integrin αVβ3 (human), P06756; experiment: SPR (BIAcore), Fab over immobilized αVβ3
integrin αVβ3 [4] = biological target: T2, integrin αVβ3 (human, UniProt P06756 31-1048; P05106 27-788); experiment: ELISA titration of Fab on immobilized αVβ3
T2 construct: mature; biotinylated in capture lift and capture ELISA; also on M21 melanoma cells in some assays; also called vitronectin receptor; αVβ3 receptor
Protocol: For ELISA titration of Fab on immobilized αVβ₃ and the related integrins αVβ₅ and αIIbβ₃, Immulon II microtiter plates were coated with 1 μg/ml purified receptor in 20 mM Tris, pH 7.4, 150 mM NaCl, 2 mM CaCl, 1 mM MgCl₂, 1 mM MnCl₂, washed once, and blocked in 3% BSA in 50 mM Tris, pH 7.4, 100 mM NaCl, 2 mM CaCl₂, 1 mM MgCl₂ for 1 h at 25° C. […] Just prior to use, the plates were washed two times and were then incubated 1 h at 25° C. with various dilutions of Fab. […] All dilutions and washes were in 50 mM Tris-HCl, pH 7.4, 100 mM NaCl, 2 mM CaCl₂, and 1 mM MgCl₂.

integrin αVβ3 [5] = biological target: T2, integrin αVβ3; experiment: SPR (BIAcore)
integrin αVβ3 [6] = biological target: T2, integrin αVβ3; experiment: inhibition of binding of 0.1 µg/ml biotinylated fibrinogen to immobilized αVβ3, 3 h at 37 °C, detection with NeutrAvidin alkaline phosphatase
integrin αVβ3 [7] = biological target: T2, integrin αVβ3; experiment: SPR (BIACORE), as in Example VI
Protocol: The affinities of select variants were further characterized by utilizing surface plasmon resonance (BIAcore) to measure the association and dissociation rates of purified Fab with immobilized αVβ₃. […] To obtain association rate constants (kₒₙ), the binding rate at five different Fab concentrations, ranging from 5-40 μg/ml in 50 mM Tris-HCl, pH 7.4, 100 mM NaCl, 2 mM CaCl₂, and 1 mM MgCl₂, was determined at a flow rate of 10 μl/min. Dissociation rate constants (koff) were the average of five measurements obtained by analyzing the dissociation phase at an increased flow rate (40 μl/min). Sensorgrams were analyzed with the BIAevaluation 2.1 program (Pharmacia). Residual Fab was removed after each measurement with 10 mM HCl, 2 mM CaCl₂ and 1 mM MgCl₂.

integrin αVβ5 = biological target: T3, integrin αVβ5 (human, UniProt P06756 31-1048; P18084 24-799); experiment: ELISA on coated integrin, detection with goat anti-human IgG alkaline phosphatase
T3 construct: mature
Protocol: Specifically, binding specificity was assessed by measuring binding to αIIbβ₃, the major integrin expressed on platelets, and to αVβ₅ an integrin found prevalent on endothelial cells and connective tissue cell types.
Antibody binding activity was assessed by ELISA using a goat anti-human IgG-alkaline phosphatase conjugate.

integrin αVβ3 [8] = biological target: T2, integrin αVβ3; experiment: ELISA screen of the position 49 library (target printed αvβ5 here, αvβ3 in paragraph 179)

T3 sequence (P18084 24-799, chain 2 of 2, one chain of several): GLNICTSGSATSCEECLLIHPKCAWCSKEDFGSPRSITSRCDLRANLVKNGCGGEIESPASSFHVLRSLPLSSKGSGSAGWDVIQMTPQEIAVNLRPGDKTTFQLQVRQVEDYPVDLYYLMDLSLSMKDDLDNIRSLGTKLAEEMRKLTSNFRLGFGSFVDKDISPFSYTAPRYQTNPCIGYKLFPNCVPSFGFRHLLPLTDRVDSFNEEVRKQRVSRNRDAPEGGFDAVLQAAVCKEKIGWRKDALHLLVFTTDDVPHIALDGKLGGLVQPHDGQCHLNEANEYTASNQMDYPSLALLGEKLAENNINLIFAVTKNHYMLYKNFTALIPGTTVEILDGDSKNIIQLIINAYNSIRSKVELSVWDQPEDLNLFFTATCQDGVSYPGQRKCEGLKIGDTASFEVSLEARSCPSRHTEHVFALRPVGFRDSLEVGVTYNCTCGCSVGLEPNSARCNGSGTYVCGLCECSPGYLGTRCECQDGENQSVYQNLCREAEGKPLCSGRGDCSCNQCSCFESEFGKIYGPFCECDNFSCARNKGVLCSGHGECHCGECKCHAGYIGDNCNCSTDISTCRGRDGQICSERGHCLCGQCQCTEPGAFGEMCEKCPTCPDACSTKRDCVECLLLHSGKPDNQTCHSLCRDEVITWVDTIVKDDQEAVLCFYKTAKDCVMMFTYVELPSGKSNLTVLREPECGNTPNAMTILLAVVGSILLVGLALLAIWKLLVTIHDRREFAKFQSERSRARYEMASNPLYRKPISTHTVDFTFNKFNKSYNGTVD

fold slower dissociation rate [1]: > 10 fold
fold enhanced affinity over parent LM609 grafted antibody [2]: > 50 fold
Kd [3]: 0.5 nM
koff [3]: 0.00014 s⁻¹
kon [3]: 279000 M⁻¹ s⁻¹
B1: LM609 grafted antibody combinatorial clone V357D (Fab)
chain 1: QVQLVESGGGVVQPGRSLRLSCAASGFTFSSYDMSWVRQAPGKGLEWVAKVSSGGGSTYYLDTVQGRFTISRDNSKNTLYLQMNSLRAEDTAVYYCARHNYGSFADWGQGTTVTVSS
chain 2: EIVLTQSPATLSLSPGERATLSCQASQSISNFLHWYQQRPGQAPRLLIRYRSQSISGIPARFSGSGSGTDFTLTISSLEPEDFAVYYCQQSGSWPHTFGGGTKVEIK
modifications: not checked

fold enhanced binding over LM609 grafted antibody (integrin αVβ3 [4]): > 3 fold
B2: LM609 grafted antibody variant T27 (Fab, V domains shown)
VH: QVQLVESGGGVVQPGRSLRLSCAASGTTFSSYDMSWVRQAPGKGLEWVAKVSSGGGSTYYLDTVQGRFTISRDNSKNTLYLQMNSLRAEDTAVYYCARHNYGSFAYWGQGTTVTVSS
VL: EIVLTQSPATLSLSPGERATLSCQASQSISNHLHWYQQRPGQAPRLLIRYRSQSISGIPARFSGSGSGTDFTLTISSLEPEDFAVYYCQQSGSWPHTFGGGTKVEIK
notes: Fab

fold slower dissociation rate (integrin αVβ3 [5]): > 10 fold
IC50 (read off the curve) (integrin αVβ3 [6]): ~0.06 µg/mL
B3: LM609 grafted antibody combinatorial clone C59 (Fab, V domains shown)
VH: QVQLVESGGGVVQPGRSLRLSCAASGFTFSSYDMSWVRQAPGKGLEWVAKVSSGGGSTYYPDTVQGRFTISRDNSKNTLYLQMNSLRAEDTAVYYCARHNYGSFADWGQGTTVTVSS
VL: EIVLTQSPATLSLSPGERATLSCQASQSISNFLHWYQQRPGQAPRLLIRYRSQSISGIPARFSGSGSGTDFTLTISSLEPEDFAVYYCQQSGSWPHTFGGGTKVEIK
notes: Fab

fold enhanced binding over LM609 grafted antibody (integrin αVβ3 [4]): > 3 fold
B4: LM609 grafted antibody variant S51 (Fab, V domains shown)
VH: QVQLVESGGGVVQPGRSLRLSCAASGFTFSSYDMSWVRQAPGKGLEWVAKVSSGGGSTYYLDTVQGRFTISRDNSKNTLYLQMNSLRAEDTAVYYCARHNYGSFAYWGQGTTVTVSS
VL: EIVLTQSPATLSLSPGERATLSCQASQSISNHLHWYQQRPGQAPRLLIRYSSQSISGIPARFSGSGSGTDFTLTISSLEPEDFAVYYCQQSGSWPHTFGGGTKVEIK
notes: Fab

fold enhanced binding over LM609 grafted antibody (integrin αVβ3 [4]): > 3 fold
B5: LM609 grafted antibody variant T92 (Fab, V domains shown)
VH: QVQLVESGGGVVQPGRSLRLSCAASGFTFSSYDMSWVRQAPGKGLEWVAKVSSGGGSTYYLDTVQGRFTISRDNSKNTLYLQMNSLRAEDTAVYYCARHNYGSFAYWGQGTTVTVSS
VL: EIVLTQSPATLSLSPGERATLSCQASQSISNHLHWYQQRPGQAPRLLIRYRSQSISGIPARFSGSGSGTDFTLTISSLEPEDFAVYYCQQSTSWPHTFGGGTKVEIK
notes: Fab

fold enhanced binding over LM609 grafted antibody (integrin αVβ3 [4]): > 3 fold
B6: LM609 grafted antibody variant W29 (Fab, V domains shown)
VH: QVQLVESGGGVVQPGRSLRLSCAASGFTWSSYDMSWVRQAPGKGLEWVAKVSSGGGSTYYLDTVQGRFTISRDNSKNTLYLQMNSLRAEDTAVYYCARHNYGSFAYWGQGTTVTVSS
VL: EIVLTQSPATLSLSPGERATLSCQASQSISNHLHWYQQRPGQAPRLLIRYRSQSISGIPARFSGSGSGTDFTLTISSLEPEDFAVYYCQQSGSWPHTFGGGTKVEIK
notes: Fab

fold slower dissociation rate (integrin αVβ3 [5]): > 10 fold
Kd (integrin αVβ3 [7]): 0.62 nM
B7: LM609 grafted antibody combinatorial clone 6H6 (Fab, V domains shown)
VH: QVQLVESGGGVVQPGRSLRLSCAASGFTFSSYDMSWVRQAPGKGLEWVAKVSSGGGSTYYLDTVQGRFTISRDNSKNTLYLQMNSLRAEDTAVYYCARHNHGSFASWGQGTTVTVSS
VL: EIVLTQSPATLSLSPGERATLSCQASQSISNHLHWYQQRPGQAPRLLIRYRSQSISGIPARFSGSGSGTDFTLTISSLEPEDFAVYYCQQSGSWPLTFGGGTKVEIK
notes: Fab

binding result (integrin αVβ5): no binding (tested: about 2000 ng/ml)
B8: Vitaxin (antibody, V domains shown)
VH: QVQLVESGGGVVQPGRSLRLSCAASGFTFSSYDMSWVRQAPGKGLEWVAKVSSGGGSTYYLDTVQGRFTISRDNSKNTLYLQMNSLRAEDTAVYYCARHNYGSFAYWGQGTTVTVSS
VL: EIVLTQSPATLSLSPGERATLSCQASQSISNHLHWYQQRPGQAPRLLIKYRSQSISGIPARFSGSGSGTDFTLTISSLEPEDFAVYYCQQSGSWPHTFGGGTKVEIK
notes: also called huLM609M13 1135-4; grafted LM609

fold enhanced binding over LM609 grafted antibody (integrin αVβ3 [4]): > 3 fold
B9: LM609 grafted antibody variant Q96 (Fab, V domains shown)
VH: QVQLVESGGGVVQPGRSLRLSCAASGFTFSSYDMSWVRQAPGKGLEWVAKVSSGGGSTYYLDTVQGRFTISRDNSKNTLYLQMNSLRAEDTAVYYCARHNYGSFAYWGQGTTVTVSS
VL: EIVLTQSPATLSLSPGERATLSCQASQSISNHLHWYQQRPGQAPRLLIRYRSQSISGIPARFSGSGSGTDFTLTISSLEPEDFAVYYCQQSGSWPQTFGGGTKVEIK
notes: Fab

Kd (integrin αVβ3 [7]): 0.9 nM
B10: enhanced LM609 grafted antibody clone 2236-38/6H6LH (Fab, V domains shown)
VH: QVQLVESGGGVVQPGRSLRLSCAASGFTFSSYDMSWVRQAPGKGLEWVAKVSSGGGSTYYPDTVQGRFTISRDNSKNTLYLQMNSLRAEDTAVYYCARHLHGSFASWGQGTTVTVSS
VL: EIVLTQSPATLSLSPGERATLSCQASQSISNFLHWYQQRPGQAPRLLIRYRSQSISGIPARFSGSGSGTDFTLTISSLEPEDFAVYYCQQSGSWPLTFGGGTKVEIK

binding result (integrin αVβ3 [8]): binds
B11: LM609 grafted antibody clone with Met at position 49 of the light chain (Fab, V domains shown)
VH: QVQLVESGGGVVQPGRSLRLSCAASGFTFSSYDMSWVRQAPGKGLEWVAKVSSGGGSTYYLDTVQGRFTISRDNSKNTLYLQMNSLRAEDTAVYYCARHNYGSFAYWGQGTTVTVSS
VL: EIVLTQSPATLSLSPGERATLSCQASQSISNHLHWYQQRPGQAPRLLIMYRSQSISGIPARFSGSGSGTDFTLTISSLEPEDFAVYYCQQSGSWPHTFGGGTKVEIK
notes: From the library of 19 non-donor residues at light chain position 49
